Reference: patent US20210355194A1 (TWIST BIOSCIENCE, published 2021)
Residue numbers refer to the chain shown, from its start. Read-outs that look alike come from different tables or passages of the source.

B1: ACE2 variant antibody 4-52 (VHH)
VHH: EVQLVESGGGLVQPGGSLRLSCAASGRSFSNSVMGWFRQAPGKEREFVARITWNGGSTYYADSVKGRFTISADNSKNTAYLQMNSLKPEDTAVYYCATTENPNPRWGQGTLVTVSS
B2: ACE2 variant antibody 4-39 (VHH)
VHH: B1 VHH with S28T, S32A, V33A, T52L, N54T, G56A, T58R, Y59N
B3: ACE2 variant antibody 4-56 (VHH)
VHH: EVQLVESGGGLVQPGGSLRLSCAASGFSLDYYGMGWFRQAPGKERESVAAISWNGDFTAYADSVKGRFTISADNSKNTAYLQMNSLKPEDTAVYYCAKRANPTGAYFDYWGQGTLVTVSS
B4: ACE2 variant antibody 3-12 (antibody, V domains shown)
VH: EVQLLESGGGLVQPGGSLRLSCAASGFTFRSHAMNWVRQAPGKGLEWVSAISGSGGSTNYADSVKGRFTISRDNSKNTLYLQMNSLRAEDTAVYYCARGLKFLEWLPSAFDIWGQGTLVTVSS
VL: DIQMTQSPSSLSASVGDRVTITCRTSQSINTYLNWYQQKPGKAPKLLIYGASNVQSGVPSRFSGSGSGTDFTLTISSLQPEDFATYYCQQSYRIPRTFGQGTKVEIK
B5: variant 6-81 (Fc fusion)
VHH: EVQLVESGGGLVQPGGSLRLSCAASGFIGNYHAMGWFRQAPGKEREFVAAVTWSGGTTNYADSVKGRFTISADNSKNTAYLQMNSLKPEDTAVYYCAREGYYYDSSGYPYYFDYWGQGTLVTVSS
B6: ACE2 variant antibody 4-33 (VHH)
VHH: EVQLVESGGGLVQPGGSLRLSCAASGFTFSRHDMGWFRQAPGKEREFVAGINWESGSTNYADSVKGRFTISADNSKNTAYLQMNSLKPEDTAVYYCAADRGVYGGRWYRTSQYTWGQGTLVTVSS
B7: ACE2 variant antibody 3-8 (antibody, V domains shown)
VH: EVQLLESGGGLVQPGGSLRLSCAASGFTFRSHAMSWVRQAPGKGLEWVSSISGGGASTYYADSVKGRFTISRDNSKNTLYLQMNSLRAEDTAVYYCARVKYLTTSSGWPRPYFDNWGQGTLVTVSS
VL: DIQMTQSPSSLSASVGDRVTITCRASQSIGKYLNWYQQKPGKAPKLLIYASSTLQRGVPSRFSGSGSGTDFTLTISSLQPEDFATYYCQQSLSTPFTFGQGTKVEIK
B8: ACE2 variant antibody 3-13 (antibody, V domains shown)
VH: EVQLLESGGGLVQPGGSLRLSCAASGFTITNYAMSWVRQAPGKGLEWVSGISGSGAGTYYADSVKGRFTISRDNSKNTLYLQMNSLRAEDTAVYYCARHTWWKGAGFFDHWGQGTLVTVSS
VL: B7 VL with K31R, S51A, T53S, Q55K, R56S, L92Y, T94L, F96R
B9: ACE2 variant antibody 3-9 (antibody, V domains shown)
VH: B7 VH with H32Y
VL: B7 VL with L92F
B10: ACE2 variant antibody 4-25 (VHH)
VHH: EVQLVESGGGLVQPGGSLRLSCAASGGTFSRYAMGWFRQAPGKEREWVSAVDSGGSTYYADSVKGRFTISADNSKNTAYLQMNSLKPEDTAVYYCAASPSLRSAWQWGQGTLVTVSS
B11: variant 6-108 (Fc fusion)
VHH: EVQLVESGGGLVQPGGSLRLSCAASGGTFGSYGMGWFRQAPGKEREFVAAIRWSGGITYYADSVKGRFTISADNSKNTAYLQMNSLKPEDTAVYYCARERYWNPLPYYYYGMDVWGQGTLVTVSS
B12: ACE2 variant antibody 4-89 (VHH)
VHH: EVQLVESGGGLVQPGGSLRLSCAASGFAFGDNWIGWFRQAPGKEREWVASISSGGTTAYADNVKGRFTIIADNSKNTAYLQMNSLKPEDTAVYYCAHRGGWLRPWGYWGQGTLVTVSS
B13: ACE2 variant antibody 4-57 (VHH)
VHH: EVQLVESGGGLVQPGGSLRLSCAASGLTFRNYAMGWFRQAPGKEREFVAAIGSGGYTDYADSVKGRFTISADNSKNTAYLQMNSLKPEDTAVYYCAVKPGWVARDPSQYNWGQGTLVTVSS
B14: variant 6-3 (Fc fusion)
VHH: EVQLVESGGGLVQPGGSLRLSCAASGFTFSPSWMGWFRQAPGKEREFVATINEYGGRNYADSVKGRFTISADNSKNTAYLQMNSLKPEDTAVYYCARVDRDFDYWGQGTLVTVSS
B15: ACE2 variant antibody 4-64 (VHH)
VHH: EVQLVESGGGLVQPGGSLRLSCAASGRTFGDYIMGWFRQAPGKERESVAAINWSAGYTAYADSVKGRFTISADNSKNTAYLQMNSLKPEDTAVYYCATASPNTGWHFDHWGQGTLVTVSS
B16: ACE2 variant antibody 4-41 (VHH)
VHH: EVQLVESGGGLVQPGGSLRLSCAASGRTFGDYIMGWFRQAPGKERESVAAINWSGGTTPYADSVKGRFTISADNSKNTAYLQMNSLKPEDTAVYYCATDPPLFCCHVDLWGQGTLVTVSS
B17: ACE2 variant antibody 4-95 (VHH)
VHH: B15 VHH with S47I, S100P, N102L, T103F, G104C
B18: ACE2 variant antibody 4-61 (VHH)
VHH: B15 VHH with S47I, G56D, A59P, S100P
B19: ACE2 variant antibody 4-49 (VHH)
VHH: B15 VHH with T98R
B20: variant 6-112 (Fc fusion)
VHH: EVQLVESGGGLVQPGGSLRLSCAASGGTFSAYHMGWFRQAPGKERELVTIIDNGGPTSYADSVKGRFTISADNSKNTAYLQMNSLKPEDTAVYYCTALLYYFDNSGYNFDPFDIWGQGTLVTGSS
B21: ACE2 variant antibody 4-62 (VHH)
VHH: EVQLVESGGGLVQPGGSLRLSCAASGRTFSDDTMGWFRQAPGKEREFVAAINWSGGSTDYADSVKGRFTISADNSKNTAYLQMNSLKPEDTAVYYCATDPPLFWGQGTLVTVSS
B22: ACE2 variant antibody 4-76 (VHH)
VHH: B21 VHH with S30G, D32Y, T33A, F47L, A50P, D59Y
B23: ACE2 variant antibody 4-78 (VHH)
VHH: B21 VHH with A50G, I51M, N52T, G56S, D59F
B24: ACE2 variant antibody 4-63 (VHH)
VHH: B21 VHH with D32Y, S57Y, D59Y
B25: ACE2 variant antibody 4-82 (VHH)
VHH: B21 VHH with S30G, D32Y, T33A, S57Y, D59R
B26: ACE2 variant antibody 4-69 (VHH)
VHH: B21 VHH with T33A, S57T, D59R
B27: ACE2 variant antibody 4-74 (VHH)
VHH: B21 VHH with R27L, I51V, N52S, S57N, D59Y
B28: ACE2 variant antibody 4-67 (VHH)
VHH: B21 VHH with G56D, D59Y
B29: ACE2 variant antibody 4-75 (VHH)
VHH: B21 VHH with S30G, S54T, S57Y, D59P

Assays:
ACE2 [1] = biological target: T1, ACE2 (human, UniProt Q9BYF1 18-740)
ACE2 [2] = biological target: T1, ACE2; remark: listed apart in the source
[3] = biological target: T2, Acro SARS-CoV-2 (COVID-19) S1 protein (SARS-CoV-2, UniProt P0DTC2 16-685); test: SPR
T2 construct: also called SARS-CoV-2 S1

[4] = biological target: T3, Acro SARS-CoV-2 (COVID-19) S1 protein (SARS-CoV-2, UniProt P0DTC2 16-685); test: SPR; remark: listed apart in the source
T3 construct: also called SARS-CoV-2 S1

T1 sequence (Q9BYF1 18-740 limits assumed): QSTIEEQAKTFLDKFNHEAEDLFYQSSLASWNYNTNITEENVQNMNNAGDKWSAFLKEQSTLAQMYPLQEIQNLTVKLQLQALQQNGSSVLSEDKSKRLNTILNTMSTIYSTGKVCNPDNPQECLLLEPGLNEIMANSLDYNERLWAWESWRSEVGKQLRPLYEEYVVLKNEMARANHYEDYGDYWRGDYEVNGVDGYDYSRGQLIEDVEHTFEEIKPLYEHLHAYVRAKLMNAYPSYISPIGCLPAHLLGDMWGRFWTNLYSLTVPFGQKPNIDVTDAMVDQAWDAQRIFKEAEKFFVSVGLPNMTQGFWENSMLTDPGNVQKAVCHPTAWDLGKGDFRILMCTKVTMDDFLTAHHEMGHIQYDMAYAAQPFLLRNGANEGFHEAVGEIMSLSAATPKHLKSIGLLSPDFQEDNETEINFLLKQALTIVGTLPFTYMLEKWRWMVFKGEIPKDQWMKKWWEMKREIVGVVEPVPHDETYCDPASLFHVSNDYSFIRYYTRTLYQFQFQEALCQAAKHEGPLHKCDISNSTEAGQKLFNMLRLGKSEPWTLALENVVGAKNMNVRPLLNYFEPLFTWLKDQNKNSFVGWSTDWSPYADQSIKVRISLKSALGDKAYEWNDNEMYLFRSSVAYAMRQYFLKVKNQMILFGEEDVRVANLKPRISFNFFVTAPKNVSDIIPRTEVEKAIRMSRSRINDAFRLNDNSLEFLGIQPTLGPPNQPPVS

Binder | koff (ACE2 [1]) [s⁻¹] | kon (ACE2 [1]) [M⁻¹ s⁻¹] | Kd (ACE2 [2]) [nM] | koff (ACE2 [2]) [s⁻¹] | kon (ACE2 [2]) [M⁻¹ s⁻¹] | Kd [3] [nM] | Kd [4] [nM]
B1 | 0.00149 | 126000 | 11.8 | 0.00149 | 126000 | – | –
B2 | 0.0137 | 136000 | 101 | 0.0137 | 136000 | – | –
B3 | 0.00237 | 130000 | 18.2 | 0.00237 | 130000 | – | –
B4 | 0.00649 | 15500 | 420 | 0.00649 | 15500 | – | –
B5 | – | – | – | – | – | 12.9 | –
B6 | 0.000552 | 229000 | 2.4 | 0.000552 | 229000 | – | –
B7 | 0.00509 | 114000 | 44.6 | 0.00509 | 114000 | – | –
B8 | 0.0102 | 80900 | 126 | 0.0102 | 80900 | – | –
B9 | 0.00569 | 83600 | 68 | 0.00569 | 83600 | – | –
B10 | 0.00303 | 78700 | 38.5 | 0.00303 | 78700 | – | –
B11 | – | – | – | – | – | – | 69.4
B12 | 0.000611 | 2.04e+06 | 0.3 | 0.000611 | 2.04e+06 | – | –
B13 | 0.00239 | 307000 | 7.8 | 0.00239 | 307000 | – | –
B14 | – | – | – | – | – | 12.4 | –
B15 | 0.0007 | 2.9e+06 | 0.2 | 0.0007 | 2.9e+06 | – | –
B16 | 0.001 | 180000 | 5.6 | 0.001 | 180000 | – | –
B17 | 0.00772 | 415000 | 18.6 | 0.00772 | 415000 | – | –
B18 | 0.00286 | 348000 | 8.2 | 0.00286 | 348000 | – | –
B19 | 0.00098 | 2.91e+06 | 0.3 | 0.00098 | 2.91e+06 | – | –
B20 | – | – | – | – | – | – | 3230
B21 | 0.00365 | 245000 | 14.9 | 0.00365 | 245000 | – | –
B22 | 0.00428 | 135000 | 31.8 | 0.00428 | 135000 | – | –
B23 | 0.00263 | 247000 | 10.7 | 0.00263 | 247000 | – | –
B24 | 0.00105 | 610000 | 1.7 | 0.00105 | 610000 | – | –
B25 | 0.00333 | 301000 | 11.1 | 0.00333 | 301000 | – | –
B26 | 0.00256 | 99400 | 25.8 | 0.00256 | 99400 | – | –
B27 | 0.00285 | 248000 | 11.5 | 0.00285 | 248000 | – | –
B28 | 0.00214 | 93900 | 22.8 | 0.00214 | 93900 | – | –
B29 | 0.00478 | 299000 | 16 | 0.00478 | 299000 | – | –
